Drawing on PMC8348221, “Characterization of the Intramolecular Interactions and Regulatory Mechanisms of the Scaffold Protein Tks4” (International Journal of Molecular Sciences, 2021), this text covers Kd for five molecules.

Common to all, as to conditions: both partners purified
The target in experiment [1] is T1, Tks4 PX–SH3_(1) fragment (residues 1–210) (human, UniProt A1X283 1-210).
T1 construct: human Tks4 (SH3PXD2B), residues 1-210: PX and SH3_(1) domains; The vector has a TEV site after the His-tag; source: E. coli Rosetta pLysS, purified
T1 sequence (looked up): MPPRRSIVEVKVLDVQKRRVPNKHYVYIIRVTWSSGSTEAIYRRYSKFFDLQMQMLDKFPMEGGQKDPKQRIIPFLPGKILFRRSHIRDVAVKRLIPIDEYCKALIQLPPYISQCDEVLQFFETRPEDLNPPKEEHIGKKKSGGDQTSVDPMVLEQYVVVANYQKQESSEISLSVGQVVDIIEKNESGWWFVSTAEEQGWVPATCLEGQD
The experiment in a line: MST; NT-647-labelled SH3_(3) constant at 20 nM, titrated with PX–SH3_(1) (16-step 2:3 dilutions from 412 µM) or, as a control, with SH3_(1); PBS, 0.5 mM TCEP, 0.05% TWEEN 20; room temperature.

The target in experiment [2] is T2, Tks4 PX–SH3_(2) fragment (residues 1–279) (human, UniProt A1X283 1-279).
T2 construct: human Tks4 (SH3PXD2B), residues 1-279: PX, SH3_(1) and SH3_(2) domains; The modified pET vector has a TEV site after the His-tag; source: E. coli Rosetta pLysS, purified
T2 sequence (looked up): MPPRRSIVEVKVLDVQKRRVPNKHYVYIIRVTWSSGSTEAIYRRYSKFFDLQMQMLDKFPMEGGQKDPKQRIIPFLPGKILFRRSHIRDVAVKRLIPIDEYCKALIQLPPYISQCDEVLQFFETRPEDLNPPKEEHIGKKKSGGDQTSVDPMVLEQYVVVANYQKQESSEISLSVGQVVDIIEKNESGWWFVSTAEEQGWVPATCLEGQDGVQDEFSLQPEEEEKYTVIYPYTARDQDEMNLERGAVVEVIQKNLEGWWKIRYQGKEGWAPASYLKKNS
The experiment can be described thus: MST; NT-647-labelled PRR–SH3_(3) constant at 20 nM, titrated with PX–SH3_(2) (16-step 1:2 dilutions from 40 µM); PBS, 0.5 mM TCEP, 0.05% TWEEN 20; room temperature; 1:1 Kd fit.

Experiment [3] deals with T2, Tks4 PX–SH3_(2) fragment (residues …). The experiment can be described thus: ITC; PX–SH3_(2) 20 µM in the cell, PRR–SH3_(3) 250 µM in the syringe; 25 °C; PBS with 0.5 mM TCEP; one set of independent binding sites model.
In experiment [4] the target is T3, Tks4 SH3_(1)–SH3_(2) tandem SH3 fragment (residues 155–279) (human, UniProt A1X283 155-279, NT-647 amine-reactive dye (in the MST only)).
T3 construct: human Tks4 (SH3PXD2B), residues 155-279: first and second SH3 domains with their linker; The vector has a TEV site after the His-tag; Unlabelled in the tryptophan fluorescence titrations; source: E. coli Rosetta pLysS, purified
T3 sequence (looked up): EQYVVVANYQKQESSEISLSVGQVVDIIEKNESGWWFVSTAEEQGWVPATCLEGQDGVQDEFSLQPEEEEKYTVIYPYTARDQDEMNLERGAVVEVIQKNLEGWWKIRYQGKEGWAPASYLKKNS
The experiment in a line: other fluorescence titration; intrinsic tryptophan fluorescence (excitation 295 nm, followed at 340 nm); SH3_(1)–SH3_(2) constant at 5 µM, PRR fragments 1.8–100 µM; PBS, 0.5 mM TCEP, 0.05% TWEEN 20; 1:1 binding model.

Experiment [5] deals with T3, Tks4 SH3_(1)–SH3_(2) tandem SH3 …. The experiment is described as above. The source holds these as a separate data set.
Experiment [6] has the same target. The experiment can be described thus: MST; NT-647-labelled SH3_(1)–SH3_(2) constant at 20 nM, titrated with PRRL (16-step 2:3 dilutions from 166 µM); PBS, 0.5 mM TCEP, 0.05% TWEEN 20; room temperature; standard Kd fit model.

Where no end group is shown, it is not given here. A value given as a limit tells only on which side of the number the result lay.

For orientation: Kd means the equilibrium constant for the complex coming apart. Higher therefore signals weaker binding.

B1: Tks4 SH3_(3) domain (residues 371–426) (domain or fragment, human, UniProt A1X283 371-426, looked up)
chain: EEYYTIAEFQTTIPDGISFQAGLKVEVIEKNLSGWWYIQIEDKEGWAPATFIDKYK
modifications: also: NT-647 amine-reactive dye label, site not given here (MST only)
notes: human Tks4 (SH3PXD2B), residues 371-426: third SH3 domain; The vector has a TEV site after the His-tag; also called third SH3 domain; source: E. coli Rosetta pLysS, purified
B1 displayed a Kd in experiment [1] of more than 50 µM.

B2: Tks4 PRR–SH3_(3) fragment (residues 333–426) (domain or fragment, human, UniProt A1X283 333-426, looked up)
chain: GDAKQRSPKMRQRPPPRRDMTIPRGLNLPKPPIPPQVEEEYYTIAEFQTTIPDGISFQAGLKVEVIEKNLSGWWYIQIEDKEGWAPATFIDKYK
modifications: NT-647 amine-reactive dye (in the MST only)
notes: human Tks4 (SH3PXD2B), residues 333-426: proline-rich region and SH3_(3) domain; The vector has a TEV site after the His-tag; Labelled in the MST, unlabelled in the ITC; source: E. coli Rosetta pLysS, purified
With B2, the Kd was approximately 0.24 µM in experiment [2] and 0.3 ± 0.2 µM in experiment [3].

B3: Tks4 PRRS peptide (peptide)
peptide: KMRQRPPPRRDMTIPRG
notes: human Tks4 (SH3PXD2B), truncated version of PRRL containing only the PTAM; source: synthetic peptide (Fmoc/tBu SPPS, RP-HPLC purified)
B3 yielded a dissociation constant (Kd) in experiment [4] of 12 µM.

B4: Tks4 PRRL fragment (residues 333–370) (domain or fragment, human)
chain: GSHMGDAKQRSPKMRQRPPPRRDMTIPRGLNLPKPPIPPQVE
notes: four N-terminal residues that are cloning artifacts; human Tks4 (SH3PXD2B), residues 333-370: proline-rich region with the PTAM (PPPRR) and the PKPPIPP motif; also called wild type PRRL; not shown: His-tag, N-terminal, cleaved
Turning to B4, the values for the Kd in experiment [5], in experiment [6] and in experiment [4] were 24 µM, 15 µM and 11 µM, respectively.

B5: Tks4 PRRL^T353E phosphomimetic mutant fragment (domain or fragment, human)
chain: GSHMGDAKQRSPKMRQRPPPRRDMEIPRGLNLPKPPIPPQVE
notes: four N-terminal residues that are cloning artifacts; human Tks4 (SH3PXD2B), residues 333-370 with the phosphomimetic Thr-to-Glu mutation T353E; not shown: His-tag, N-terminal, cleaved
B5: the affinity in experiment [4], expressed as Kd, was 10 µM. This lies in the double-digit micromolar range.
